Each block holds one binder with its values, some of them ahead of it. Starred links: 1 amine or outer side, 2 acyl side, 3 side chain; linkers in the order of their positions; H or OH if unused. Non-standard residues stand in square brackets, D forms with d. Groups on a side chain read outwards from the residue. No end group written: not given here. *: point of attachment. C18 diacid = O=C(O)CCCCCCCCCCCCCCCCC(=O)*; γGlu = O=C(O)[C@H](CCC(=O)[*:2])N[*:1]; Ac4c = NC1(C(=O)O)CCC1; AEEA = NCCOCCOCC(=O)O; Aib = CC(C)(N)C(=O)O
Tests used:
[1] = biological target: T1, human GLP-1 receptor (human, UniProt P43220 24-463); test: cell-based or functional assay
[2] = biological target: T2, human glucagon receptor (human, UniProt P47871 26-477); test: cell-based or functional assay
[3] = biological target: T1, human GLP-1 receptor; test: displacement of [125I]-GLP-1-(7-36)NH2 from BHK membranes with human GLP-1R, SPA, no serum albumin
[4] = biological target: T2, human glucagon receptor; test: displacement of [125I]-glucagon from BHK membranes with human glucagon receptor, SPA, no serum albumin

T2 sequence (P47871 26-477): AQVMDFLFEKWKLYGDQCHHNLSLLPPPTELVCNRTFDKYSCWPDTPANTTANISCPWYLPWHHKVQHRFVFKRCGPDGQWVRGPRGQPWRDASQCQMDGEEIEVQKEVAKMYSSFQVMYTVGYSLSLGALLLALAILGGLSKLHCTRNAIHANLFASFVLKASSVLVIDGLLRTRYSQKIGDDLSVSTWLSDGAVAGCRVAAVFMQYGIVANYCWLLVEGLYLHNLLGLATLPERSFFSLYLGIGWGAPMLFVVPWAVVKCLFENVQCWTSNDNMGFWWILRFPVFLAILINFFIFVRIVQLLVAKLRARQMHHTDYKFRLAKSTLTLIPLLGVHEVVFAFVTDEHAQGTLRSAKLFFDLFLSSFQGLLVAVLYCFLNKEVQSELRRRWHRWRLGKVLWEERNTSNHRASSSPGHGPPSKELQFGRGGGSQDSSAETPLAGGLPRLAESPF

B2: N^ε24-[2-[2-[2-[[2-[2-[2-[[(4S)-4-carboxy-4-[[(4S)-4-carboxy-4-[[(4S)-4-carboxy-4-(17-carboxyheptadecanoylamino)butanoyl]amino]butanoyl]amino]butanoyl]amino]eth … (peptide)
peptide: H[Aib]QGTFTSDYSKYLDARRAREFVK([AEEA-AEEA-γGlu-γGlu-γGlu-C18 diacid])WLIST-NH2
modifications: N-terminus assumed
SMILES: CC[C@H](C)[C@H](NC(=O)[C@H](CC(C)C)NC(=O)[C@H](Cc1c[nH]c2ccccc12)NC(=O)[C@H](CCCCNC(=O)COCCOCCNC(=O)COCCOCCNC(=O)CC[C@H](NC(=O)CC[C@H](NC(=O)CC[C@H](NC(=O)CCCCCCCCCCCCCCCCC(=O)O)C(=O)O)C(=O)O)C(=O)O)NC(=O)[C@@H](NC(=O)[C@H](Cc1ccccc1)NC(=O)[C@H](CCC(=O)O)NC(=O)[C@H](CCCNC(=N)N)NC(=O)[C@H](C)NC(=O)[C@H](CCCNC(=N)N)NC(=O)[C@H](CCCNC(=N)N)NC(=O)[C@H](C)NC(=O)[C@H](CC(=O)O)NC(=O)[C@H](CC(C)C)NC(=O)[C@H](Cc1ccc(O)cc1)NC(=O)[C@H](CCCCN)NC(=O)[C@H](CO)NC(=O)[C@H](Cc1ccc(O)cc1)NC(=O)[C@H](CC(=O)O)NC(=O)[C@H](CO)NC(=O)[C@@H](NC(=O)[C@H](Cc1ccccc1)NC(=O)[C@@H](NC(=O)CNC(=O)[C@H](CCC(N)=O)NC(=O)C(C)(C)NC(=O)[C@@H](N)Cc1c[nH]cn1)[C@@H](C)O)[C@@H](C)O)C(C)C)C(=O)N[C@@H](CO)C(=O)N[C@H](C(N)=O)[C@@H](C)O
notes: also called Chem. 4; Chem 4
- GLP-1R EC50 (pM) [Assay (I)(a)], CRE luciferase reporter, BHK cells [1]: 3 pM
- GlucagonR EC50 (pM), [Assay (I)(b)], CRE luciferase reporter, BHK cells [2]: 12 pM
- IC50 [3]: 0.1 nM
- IC50 [4]: 3.9 nM

B5: N^ε28-[2-[2-[2-[[2-[2-[2-[[(4S)-4-carboxy-4-[[(4S)-4-carboxy-4-[[(4S)-4-carboxy-4-(17-carboxyheptadecanoylamino)butanoyl]amino]butanoyl]amino]butanoyl]amino]eth … (peptide)
peptide: H[Aib]QGTFTSDLSKYLDARRAQDFVQWLIK([AEEA-AEEA-γGlu-γGlu-γGlu-C18 diacid])T-NH2
modifications: N-terminus assumed
SMILES: CC[C@H](C)[C@H](NC(=O)[C@H](CC(C)C)NC(=O)[C@H](Cc1c[nH]c2ccccc12)NC(=O)[C@H](CCC(N)=O)NC(=O)[C@@H](NC(=O)[C@H](Cc1ccccc1)NC(=O)[C@H](CC(=O)O)NC(=O)[C@H](CCC(N)=O)NC(=O)[C@H](C)NC(=O)[C@H](CCCNC(=N)N)NC(=O)[C@H](CCCNC(=N)N)NC(=O)[C@H](C)NC(=O)[C@H](CC(=O)O)NC(=O)[C@H](CC(C)C)NC(=O)[C@H](Cc1ccc(O)cc1)NC(=O)[C@H](CCCCN)NC(=O)[C@H](CO)NC(=O)[C@H](CC(C)C)NC(=O)[C@H](CC(=O)O)NC(=O)[C@H](CO)NC(=O)[C@@H](NC(=O)[C@H](Cc1ccccc1)NC(=O)[C@@H](NC(=O)CNC(=O)[C@H](CCC(N)=O)NC(=O)C(C)(C)NC(=O)[C@@H](N)Cc1c[nH]cn1)[C@@H](C)O)[C@@H](C)O)C(C)C)C(=O)N[C@@H](CCCCNC(=O)COCCOCCNC(=O)COCCOCCNC(=O)CC[C@H](NC(=O)CC[C@H](NC(=O)CC[C@H](NC(=O)CCCCCCCCCCCCCCCCC(=O)O)C(=O)O)C(=O)O)C(=O)O)C(=O)N[C@H](C(N)=O)[C@@H](C)O
notes: also called Chem. 7; Chem 7
- GLP-1R EC50 (pM) [Assay (I)(a)], CRE luciferase reporter, BHK cells [1]: 2 pM
- GlucagonR EC50 (pM), [Assay (I)(b)], CRE luciferase reporter, BHK cells [2]: 32 pM
- IC50 [3]: 0.3 nM
- IC50 [4]: 6 nM

B6: N^ε28-[2-[2-[2-[[2-[2-[2-[[(4S)-4-carboxy-4-[[(4S)-4-carboxy-4-[[(4S)-4-carboxy-4-(17-carboxyheptadecanoylamino)butanoyl]amino]butanoyl]amino]butanoyl]amino]eth … (peptide)
peptide: H[Aib]QGTFTSDLSKYLDARRAREFVQWLIK([AEEA-AEEA-γGlu-γGlu-γGlu-C18 diacid])T-NH2
modifications: N-terminus assumed
SMILES: CC[C@H](C)[C@H](NC(=O)[C@H](CC(C)C)NC(=O)[C@H](Cc1c[nH]c2ccccc12)NC(=O)[C@H](CCC(N)=O)NC(=O)[C@@H](NC(=O)[C@H](Cc1ccccc1)NC(=O)[C@H](CCC(=O)O)NC(=O)[C@H](CCCNC(=N)N)NC(=O)[C@H](C)NC(=O)[C@H](CCCNC(=N)N)NC(=O)[C@H](CCCNC(=N)N)NC(=O)[C@H](C)NC(=O)[C@H](CC(=O)O)NC(=O)[C@H](CC(C)C)NC(=O)[C@H](Cc1ccc(O)cc1)NC(=O)[C@H](CCCCN)NC(=O)[C@H](CO)NC(=O)[C@H](CC(C)C)NC(=O)[C@H](CC(=O)O)NC(=O)[C@H](CO)NC(=O)[C@@H](NC(=O)[C@H](Cc1ccccc1)NC(=O)[C@@H](NC(=O)CNC(=O)[C@H](CCC(N)=O)NC(=O)C(C)(C)NC(=O)[C@@H](N)Cc1c[nH]cn1)[C@@H](C)O)[C@@H](C)O)C(C)C)C(=O)N[C@@H](CCCCNC(=O)COCCOCCNC(=O)COCCOCCNC(=O)CC[C@H](NC(=O)CC[C@H](NC(=O)CC[C@H](NC(=O)CCCCCCCCCCCCCCCCC(=O)O)C(=O)O)C(=O)O)C(=O)O)C(=O)N[C@H](C(N)=O)[C@@H](C)O
notes: also called Chem. 6; Chem 6
- GLP-1R EC50 (pM) [Assay (I)(a)], CRE luciferase reporter, BHK cells [1]: 5 pM
- GlucagonR EC50 (pM), [Assay (I)(b)], CRE luciferase reporter, BHK cells [2]: 14 pM
- IC50 [3]: 0.1 nM
- IC50 [4]: 3.7 nM

Binder: H[Ac4c]QGTFTSDLSKYLESRRAREFVQWLIK([AEEA-AEEA-γGlu-γGlu-C18 diacid])T-NH2 (also called Chem. 18; Chem 18)
- GLP-1R EC50 (pM) [Assay (I)(a)], CRE luciferase reporter, BHK cells [1]: 4 pM
- GlucagonR EC50 (pM), [Assay (I)(b)], CRE luciferase reporter, BHK cells [2]: 32 pM
- IC50 [3]: 0.1 nM
- IC50 [4]: 11.1 nM

Second part, the binder after the results:

- GLP-1R EC50 (pM) [Assay (I)(a)], CRE luciferase reporter, BHK cells [1]: 2 pM
- GlucagonR EC50 (pM), [Assay (I)(b)], CRE luciferase reporter, BHK cells [2]: 10 pM
- IC50 [3]: 0.3 nM
- IC50 [4]: 7.5 nM
B1: N^ε24-[2-[2-[2-[[2-[2-[2-[[(4S)-4-carboxy-4-[[(4S)-4-carboxy-4-[[(4S)-4-carboxy-4-(17-carboxyheptadecanoylamino)butanoyl]amino]butanoyl]amino]butanoyl]amino]eth … (peptide)
peptide: H[Aib]QGTFTSDYSKYLDAKRAREFVK([AEEA-AEEA-γGlu-γGlu-γGlu-C18 diacid])WLIST-NH2
modifications: N-terminus assumed
SMILES: CC[C@H](C)[C@H](NC(=O)[C@H](CC(C)C)NC(=O)[C@H](Cc1c[nH]c2ccccc12)NC(=O)[C@H](CCCCNC(=O)COCCOCCNC(=O)COCCOCCNC(=O)CC[C@H](NC(=O)CC[C@H](NC(=O)CC[C@H](NC(=O)CCCCCCCCCCCCCCCCC(=O)O)C(=O)O)C(=O)O)C(=O)O)NC(=O)[C@@H](NC(=O)[C@H](Cc1ccccc1)NC(=O)[C@H](CCC(=O)O)NC(=O)[C@H](CCCNC(=N)N)NC(=O)[C@H](C)NC(=O)[C@H](CCCNC(=N)N)NC(=O)[C@H](CCCCN)NC(=O)[C@H](C)NC(=O)[C@H](CC(=O)O)NC(=O)[C@H](CC(C)C)NC(=O)[C@H](Cc1ccc(O)cc1)NC(=O)[C@H](CCCCN)NC(=O)[C@H](CO)NC(=O)[C@H](Cc1ccc(O)cc1)NC(=O)[C@H](CC(=O)O)NC(=O)[C@H](CO)NC(=O)[C@@H](NC(=O)[C@H](Cc1ccccc1)NC(=O)[C@@H](NC(=O)CNC(=O)[C@H](CCC(N)=O)NC(=O)C(C)(C)NC(=O)[C@@H](N)Cc1c[nH]cn1)[C@@H](C)O)[C@@H](C)O)C(C)C)C(=O)N[C@@H](CO)C(=O)N[C@H](C(N)=O)[C@@H](C)O
notes: also called Chem. 2; Chem 2

- GLP-1R EC50 (pM) [Assay (I)(a)], CRE luciferase reporter, BHK cells [1]: 7 pM
- GlucagonR EC50 (pM), [Assay (I)(b)], CRE luciferase reporter, BHK cells [2]: 517 pM
- IC50 [3]: 0.1 nM
- IC50 [4]: 27.6 nM
B3: N^ε28-[2-[2-[2-[[2-[2-[2-[[(4S)-4-carboxy-4-[[(4S)-4-carboxy-4-[[(4S)-4-carboxy-4-(17-carboxyheptadecanoylamino)butanoyl]amino]butanoyl]amino]butanoyl]amino]eth … (peptide)
peptide: H[Aib]QGTFTSDLSKYLESRRAQDFVQWLIK([AEEA-AEEA-γGlu-γGlu-γGlu-C18 diacid])T-NH2
modifications: N-terminus assumed
SMILES: CC[C@H](C)[C@H](NC(=O)[C@H](CC(C)C)NC(=O)[C@H](Cc1c[nH]c2ccccc12)NC(=O)[C@H](CCC(N)=O)NC(=O)[C@@H](NC(=O)[C@H](Cc1ccccc1)NC(=O)[C@H](CC(=O)O)NC(=O)[C@H](CCC(N)=O)NC(=O)[C@H](C)NC(=O)[C@H](CCCNC(=N)N)NC(=O)[C@H](CCCNC(=N)N)NC(=O)[C@H](CO)NC(=O)[C@H](CCC(=O)O)NC(=O)[C@H](CC(C)C)NC(=O)[C@H](Cc1ccc(O)cc1)NC(=O)[C@H](CCCCN)NC(=O)[C@H](CO)NC(=O)[C@H](CC(C)C)NC(=O)[C@H](CC(=O)O)NC(=O)[C@H](CO)NC(=O)[C@@H](NC(=O)[C@H](Cc1ccccc1)NC(=O)[C@@H](NC(=O)CNC(=O)[C@H](CCC(N)=O)NC(=O)C(C)(C)NC(=O)[C@@H](N)Cc1c[nH]cn1)[C@@H](C)O)[C@@H](C)O)C(C)C)C(=O)N[C@@H](CCCCNC(=O)COCCOCCNC(=O)COCCOCCNC(=O)CC[C@H](NC(=O)CC[C@H](NC(=O)CC[C@H](NC(=O)CCCCCCCCCCCCCCCCC(=O)O)C(=O)O)C(=O)O)C(=O)O)C(=O)N[C@H](C(N)=O)[C@@H](C)O
notes: also called Chem. 8; Chem 8

- GLP-1R EC50 (pM) [Assay (I)(a)], CRE luciferase reporter, BHK cells [1]: 10 pM
- GlucagonR EC50 (pM), [Assay (I)(b)], CRE luciferase reporter, BHK cells [2]: 44 pM
- IC50 [3]: 0.5 nM
- IC50 [4]: 17.3 nM
B4: N^ε28-[2-[2-[2-[[2-[2-[2-[[(4S)-4-carboxy-4-[[(4S)-4-carboxy-4-[[(4S)-4-carboxy-4-(17-carboxyheptadecanoylamino)butanoyl]amino]butanoyl]amino]butanoyl]amino]eth … (peptide)
peptide: H[Aib]QGTFTSDLSKYLDLRRAQDFVQWLIK([AEEA-AEEA-γGlu-γGlu-γGlu-C18 diacid])T-NH2
modifications: N-terminus assumed
SMILES: CC[C@H](C)[C@H](NC(=O)[C@H](CC(C)C)NC(=O)[C@H](Cc1c[nH]c2ccccc12)NC(=O)[C@H](CCC(N)=O)NC(=O)[C@@H](NC(=O)[C@H](Cc1ccccc1)NC(=O)[C@H](CC(=O)O)NC(=O)[C@H](CCC(N)=O)NC(=O)[C@H](C)NC(=O)[C@H](CCCNC(=N)N)NC(=O)[C@H](CCCNC(=N)N)NC(=O)[C@H](CC(C)C)NC(=O)[C@H](CC(=O)O)NC(=O)[C@H](CC(C)C)NC(=O)[C@H](Cc1ccc(O)cc1)NC(=O)[C@H](CCCCN)NC(=O)[C@H](CO)NC(=O)[C@H](CC(C)C)NC(=O)[C@H](CC(=O)O)NC(=O)[C@H](CO)NC(=O)[C@@H](NC(=O)[C@H](Cc1ccccc1)NC(=O)[C@@H](NC(=O)CNC(=O)[C@H](CCC(N)=O)NC(=O)C(C)(C)NC(=O)[C@@H](N)Cc1c[nH]cn1)[C@@H](C)O)[C@@H](C)O)C(C)C)C(=O)N[C@@H](CCCCNC(=O)COCCOCCNC(=O)COCCOCCNC(=O)CC[C@H](NC(=O)CC[C@H](NC(=O)CC[C@H](NC(=O)CCCCCCCCCCCCCCCCC(=O)O)C(=O)O)C(=O)O)C(=O)O)C(=O)N[C@H](C(N)=O)[C@@H](C)O
notes: also called Chem. 9; Chem 9

Source: patent publication US20170101454A1 (Novo Nordisk, published 2017)
